T1: N-acetyl-alanyl-alanyl-dioleoyl phosphatidylethanolamine
T1 chain: AA

T2: MeO-suc-ala-ala-pro-val-DOPE (1,2-Dioleoyl-sn-glycero-3-phosphoethanolamido-val-pro-ala-ala-sucMeO)
T2 chain: AAPV


Tests used:
[1] = target: T1, N-acetyl-alanyl-alanyl-dioleoyl …
[2] = target: T2, MeO-suc-ala-ala-pro-val-DOPE …

Row | Protein | cleavage of N-Ac-AA-DOPE to DOPE, TLC [1] | cleavage of N-Ac-AA-DOPE, HPLC [1] | cleavage of N-Ac-ala-ala-DOPE, HPLC [1] | conversion of N-acetyl-ala-ala-DOPE to DOPE, 31P NMR integration [1] | cleavage of MeO-suc-ala-ala-pro-val-DOPE, TLC, HLE dose titration [2] | conversion of MeO-suc-AAPV-DOPE to DOPE, 31P-NMR [2] | conversion of exposed (outer leaflet) MeO-suc-AAPV-DOPE to DOPE, 31P-NMR, assuming unilamellar vesicles [2] | kinetics of cleavage of MeO-suc-ala-ala-pro-val-DOPE, TLC [2]
1 | proteinase K (protein) AAQTNAPWGLARISSTSPGTSTYYYDESAGQGSCVYVIDTGIEASHPEFEGRAQMVKTYYYSSRDGNGHGTHCAGTVGSRTYGVAKKTQLFGVKVLDDNGSGQYSTIIAGMDFVASDKNNRNCPKGVVASLSLGGGYSSSVNSAAARLQSSGVMVAVAAGNNNADARNYSPASEPSVCTVGASDRYDRRSSFSNYGSVLDIFGPGTSILSTWIGGSTRSISGTSMATPHVAGLAAYLMTLGKTTAASACRYIADTANKGDLSNIPFGTVNLLAYNNYQA | Upon incubation of N-Ac-AA-DOPE liposomes with proteinase K the peptide-lipid was cleaved and DOPE was generated | Both elastase and proteinase K cleaved N-Ac-AA-DOPE to a similar extent | both proteinase K, with a known cleavage site, and the nonspecific mixture of proteases found in pronase, effected cleavage of N-Ac-ala-ala-DOPE from the liposomes | approximately 20% of the N-acetyl-ala-ala-DOPE was converted to pure DOPE in sample B | – | – | – | –
2 | Human leukocyte elastase (protein) IVGGRRARPHAWPFMVSLQLRGGHFCGATLIAPNFVMSAAHCVANVNVRAVRVVLGAHNLSRREPTRQVFAVQRIFENGYDPVNLLNDIVILQLNGSATINANVQVAQLPAQGRRLGNGVQCLAMGWGLLGRNRGIASVLQELNVTVVTSLCRRSNVCTLVRGRQAGVCFGDSGSPLVCNGLIHGIASFVRGGCASGLYPDAFAPVAQFVNWIDSIIQ | Treatment of N-Ac-AA-DOPE liposomes with elastase generated a product corresponding to DOPE | Both elastase and proteinase K cleaved N-Ac-AA-DOPE to a similar extent | – | – | between 5-40 micrograms of HLE were effective in cleaving the AAPV-PE | Treatment with 5 micrograms of elastase/100 nmol lipid yielded 20% DOPE | the minimal percentage conversion of exposed MeO-suc-AAPV-DOPE (SEQ ID NO:42) to DOPE in the outer leaflet lipid of this preparation was 40% | The peptide was cleaved by HLE in as little as 1 hour at 37 degrees C.

— patent publication US6339069
